{
  "source": "patent US9168216B2",
  "about": "“Carrier comprising one or more di and/or mono-(electron transfer agent) phosphate derivatives or complexes thereof” (priority 2005, dated 2015)",
  "origin": "cited, not measured here",
  "settings": "subcutaneous, 25 μg/kg body weight",
  "data": [
    {"substance": "PTH: human parathyroid hormone (fragment 1-34)", "values": [
      {"measurement": "Time of peak PTH level in rat plasma after injection", "value": "40 to 60", "unit": "min"},
      {"measurement": "Time to complete turnover of PTH in plasma", "value": "≤ 4", "unit": "h"}
    ]}
  ]
}
